# In patent US20050070692A1 (published 2005):
# T1: mouse IL-1β (mouse, UniProt P10749 118-269)
# T1 sequence (looked up): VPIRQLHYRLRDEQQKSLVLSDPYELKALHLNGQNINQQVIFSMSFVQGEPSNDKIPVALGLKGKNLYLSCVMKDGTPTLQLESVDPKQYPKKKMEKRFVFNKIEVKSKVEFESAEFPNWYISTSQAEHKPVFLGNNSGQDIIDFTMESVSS
# T2: rat IL-1β (rat, UniProt Q63264 117-268)
# T2 sequence (looked up): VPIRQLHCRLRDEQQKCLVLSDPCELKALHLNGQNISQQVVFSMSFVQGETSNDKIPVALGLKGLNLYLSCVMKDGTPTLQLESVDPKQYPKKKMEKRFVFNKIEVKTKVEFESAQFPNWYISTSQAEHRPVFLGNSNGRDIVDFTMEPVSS
# T3: human IL-1α (human, UniProt P01583 113-271)
# T3 sequence (looked up): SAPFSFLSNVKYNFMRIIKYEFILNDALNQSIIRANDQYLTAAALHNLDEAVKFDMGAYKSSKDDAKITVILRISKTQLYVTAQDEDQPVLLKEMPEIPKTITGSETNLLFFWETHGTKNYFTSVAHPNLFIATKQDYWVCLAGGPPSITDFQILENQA
# B1: humanized antibody Hu007 (antibody, human IgG1, kappa, V domains shown)
# VH: QVQLVQSGAEVKKPGASVKVSCKVSGYTFSRYWIEWVRQAPGKGLEWIGEILPGNGNINYNEKFKGKATITADTSTDTAYMELSSLRSEDTAVYYCSTIYYDYDQGFTYWGQGTLVTVSS
# VL: DIQMTQSPSSLSASVGDRVTITCKASQDIDRYLSWFQQKPGKAPKSLIYRVKRLVDGVPSRFSGSASGTDYTLTISSLQPEDFATYYCLQYDEFPYTFGQGTKLEIKR
# notes: Human IgG1 kappa; also called WT; Hu007 WT
# Tests used:
# [1] = biological target: T4, human IL-1β (human, UniProt P01584 117-269); test: competition ELISA on coated human IL-1β against biotinylated Mu007, Exp. B
# T4 construct: mature; also called mature human IL-1β; Interleukin-1β
# Procedure: (§1) Wells of 96-well ELISA plates (Nunc-lmmuno plate, Cat # 439454, NalgeNunc) were coated with 100 μL of 0.5. μg/mL of human IL-1β in 0.2M sodium carbonate-bicarbonate buffer (pH 9.4) overnight at 4° C., washed with Wash Buffer, blocked with Superblock blocking buffer for 30 min at 37° C., and washed again with Wash Buffer. A mixture of biotinylated Mu007 (0.16 μg/mL final concentration) and competitor antibody (Mu007, Hu007, or Hu007 analogs starting at 100 μg/mL final concentration and serial 3-fold dilutions) in ELISA Buffer were added in triplicate in a final volume of 100 μL per well. As a no-competitor control, 100 μL of 0.16 μg/mL biotinylated Mu007 was used. As a background control, 100 gLL of ELISA Buffer was used. ELISA plates were incubated at 37° C. for 2 hr. After washing the wells with Washing Buffer, 100 μL of 1 μg/mL HRP-conjugated streptavidin (Jackson ImmunoResearch) was added to each well. ELISA plates were incubated at room temperature for 30 min and washed with Washing Buffer. For color development, 100 μL/well of ABTS substrate was added. Color development was stopped by adding 100 μL/well of 2% oxalic acid. Absorbance was read at 415 nm.
# (§2) Mu007, Hu007 and Hu007 analogs competed with biotinylated Mu007 in a concentration-dependent manner. The IC₅₀ values of Mu007 and Hu007 in three independent ELISA competition experiments, obtained using the computer software Prism (GraphPad Software Inc., San Diego, Calif.) are shown in Table 1. The relative binding of Hu007 was on average 89% of Mu007.
# [2] = biological target: T4, human IL-1β; test: cell-based or functional assay
# [3] = biological target: T4, human IL-1β; test: competition ELISA on coated human IL-1β against biotinylated Mu007, average
# Procedure: as §1
# (§3) Mu007, Hu007 and Hu007 analogs competed with biotinylated Mu007 in a concentration-dependent manner. […]
# [4] = biological target: T4, human IL-1β; test: cell-based or functional assay; remark: listed apart in the source
# [5] = biological target: T4, human IL-1β; test: competition ELISA on coated human IL-1β against biotinylated Mu007, Exp. A
# Procedure: as §1, §2
# [6] = biological target: T1, mouse IL-1β; test: BIAcore, antibody captured on anti-IgG chip, ligand flowed
# Procedure: (§4) Affinities and specificities of both Hu007 and Mu007 were determined using BlAcore measurements. BIAcore™ is an automated biosensor system that measures molecular interactions. (Karlsson, et al. (1991) J. Immunol. Methods 145: 229-240). In these experiments antibody was immobilized at low density on a BIAcore™ chip. Ethyl-dimethylaminopropyl-carbodiimide (EDC) was used to couple reactive amino groups to purified goat anti-human IgG or goat anti-rabbit IgG to a flow cell of a carboxy-methyl (CM5) BIAcore™ sensor chip. Goat IgG was diluted in sodium acetate buffer, pH 4.0, and immobilized on a flow cell of a CM5 chip using EDC to yield 1000 response units. Unreacted sites were blocked with ehanolamine. A flow rate of 60 μL/min was used. Multiple binding/elution cycles were performed by injection a 100 μL solution of 15 μg/mL Mu007 or Hu007 followed by human IL-1β, mouse IL-1β, rat IL-1β, cynomolgus monkey IL-1β, porcine IL-1β, human IL-1 receptor antagonist, and human IL-1α at decreasing concentrations for each cycle (e.g., 1500, 750, 375, 188, 94, 47, 23.5, 12, and 0 picomolar). Elution was performed with glycine-HCl, pH 1.5. BIAevaluation™ was used to analyze the kinetic data. Table 2 depicts the affinities of Hu007 and Mu007 for human and cynomolgus IL-1β. […] Cynomolgus and porcine IL-1β had 100% binding to Hu007 relative to human IL-1β.
# [7] = biological target: T5, human IL-1 receptor antagonist (human, UniProt P18510 26-177); test: as above
# T5 construct: also called IL-1ra
# Procedure: as §4
# [8] = biological target: T2, rat IL-1β; test: as above
# Procedure: as §4
# [9] = biological target: T3, human IL-1α; test: as above
# Procedure: as §4
# [10] = biological target: T4, human IL-1β; test: competition ELISA on coated human IL-1β against biotinylated Mu007, Exp. C
# Procedure: as §1, §2
# [11] = biological target: T4, human IL-1β; test: competition ELISA on coated human IL-1β against biotinylated Mu007, average of three experiments
# Procedure: as §1, §3
# T5 sequence (P18510 26-177 limits assumed): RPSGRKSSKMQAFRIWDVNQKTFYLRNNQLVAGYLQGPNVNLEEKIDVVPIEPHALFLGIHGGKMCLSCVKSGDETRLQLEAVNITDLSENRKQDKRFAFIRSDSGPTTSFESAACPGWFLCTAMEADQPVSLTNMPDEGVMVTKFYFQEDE
binder,measurement,setting,value
B1,"Hu007/Mu007 × 100 (IC50 ratio, relative binding against Mu007)",[1],88%
same,IC50,[1],0.35 µg/mL
same,"IC50, inhibition of human IL-1β stimulated proliferation",[2],57 Picomolar
same,"Hu007/Mu007 × 100 (IC50 ratio, relative binding against Mu007)",[3],89%
same,"IC50, inhibition of IL-1β stimulated proliferation of T1165.17 cells (3H-thymidine), average of three experiments",[4],0.48 nM
same,efficacy relative to Mu007 in the murine model of human IL-1β induced IL-6,[4],~0.33 fraction of Mu007
same,"Hu007/Mu007 × 100 (IC50 ratio, relative binding against Mu007)",[5],98%
same,IC50,[5],0.39 µg/mL
same,binding result,[6],no binding
same,binding result,[7],no binding
same,binding result,[8],no binding
same,binding result,[9],no binding
same,"Hu007/Mu007 × 100 (IC50 ratio, relative binding against Mu007)",[10],82%
same,IC50,[10],0.32 µg/mL
same,IC50,[11],0.35 µg/mL
